Measurements: patent US9273093B2, “α4β7 peptide dimer antagonists” (Protagonist Therapeutics, Inc., priority 2012, dated 2016)
Bridges are numbered along the chain shown (N, C = ends). Where no end group is shown, it is not given here. [ ]: non-standard residue; d: D form. NMeR = CN[C@@H](CCCNC(=N)N)C(=O)O; Pen = CC(C)(S)[C@H](N)C(=O)O

Experiment: Simulated Intestinal Fluid (SIF) Stability Assay
Format: in vitro ADME
Conditions: compared to SEQ ID NO: 39 with Cys or to monomer subunits
Procedure: Simulated Intestinal Fluid (SIF) Stability Assay
Studies were carried out in simulated intestinal fluid (SIF) to evaluate gastric stability of the dimer molecules of the instant invention. SIF was prepared by adding 6.8 g of monobasic potassium phosphate and 10.0 g of pancreatin to 1.0 L of water. After dissolution, the pH was adjusted to 6.8 using NaOH. DMSO stocks (2 mM) were first prepared for the test compounds. Aliquots of the DMSO solutions were dosed into 6 individual tubes, each containing 0.5 mL of SIF, which had been pre-warmed to 37° C.
The final test compound concentration was 20 μM. The vials were kept in a benchtop Thermomixer® for the duration of the experiment. At each timepoint (0, 5, 10, 20, 40, and 60 minutes), 1.0 mL of acetonitrile containing 1% formic acid was added to one vial to terminate the reaction. Samples were stored at 4° C. until the end of the experiment. […] Aliquots of the supernatant were removed, diluted 1:1 into distilled water containing internal standard, and analyzed by LCMS/MS. Percent remaining at each timepoint was calculated based on the peak area response ratio of test to compound to internal standard. Time 0 was set to 100%, and all later timepoints were calculated relative to time 0. Half-lives were calculated by fitting to a first-order exponential decay equation using GraphPad. […]

SEQ ID NO: 102: homodimer of monomer subunit with Pen in place of Cys and N-Me-Arg, dimerized at C-termini (K[Pen][NMeR]SDTL[Pen]W; disulfide 2-8 (inferred); also: homodimer dimerized at C-termini)
stability in simulated intestinal fluids (SIF) (in words): increased stability significantly
